We go through 42 molecules from patent US20040018971A1 (published 2004).

The target in test [1] is HLA-A*1101 (human). Put plainly: competition with 125I-labelled probe peptide for purified HLA-A*1101, gel filtration; standard peptide 940.06 [..] (6.0 nM).
The target of test [2] is T1, HLA-A*0301 (human).
T1 construct: also called HLA-A3
The test is described as follows: inhibition of 125I-labelled probe peptide binding to purified HLA-A*0301, gel filtration; ratio to standard peptide 941.12 ([..], 11 nM). (Size exclusion chromatography separates by hydrodynamic size, large species first.)

The target of test [3] is HLA-B*3501 (human). Put plainly: competition vs 125I-labeled standard peptide, purified HLA.
Test [4] deals with HLA-B*5101 (human). The test is described as above.
The target of test [5] is HLA-B*5401 (human). The description is as above.
Test [6] concerns the target HLA-B*5301 (human). The description is as above.
The target in test [7] is HLA-B*0702 (human). The test is described as above.
Test [8] deals with HLA-A*0301 (human). The test is described as follows: inhibition of 125I probe peptide binding to purified HLA.
For test [9], the target named is HLA-A*6801 (human). Described as above.
The target of test [10] is HLA-A*3101 (human). Described as above.

B1: HER2/neu peptide, position 42, 9 amino acids (peptide)
peptide: HLDMLRHLY
notes: also called Her2/neu.42
As to B1, in [1], the relative binding ratio was 0.0002 ratio (IC50 of standard peptide / IC50 of test peptide).

B2: HER2/neu peptide, position 1188, 9 amino acids (peptide)
peptide: GGAVENPEY
Regarding B2, in [2], the “relative binding ratio (IC50 of standard peptide / IC50 of test peptide)” value amounted to 0.0003.

B3: Her2/neu.649.F1I11 (peptide)
peptide: FPLTSIISAVI
notes: 11-mer analog of the HER2/neu peptide starting at position 649
B3: the 50% inhibitory concentration (IC50) in test [3] is 96 nM; in [4] it was 4.6 nM; in test [5], 2.2 nM; in test [6], 66 nM.

B4: Her2/neu.921.F1 (peptide)
peptide: FPYDGIPA
notes: 8-mer analog of the HER2/neu peptide starting at position 921
With B4, the IC50 in [3] worked out at 206 nM; in test [4], 157 nM; in test [7], 423 nM; in test [5], 1 nM; in [6], 6200 nM.

B5: Her2/neu.921.F1I8 (peptide)
peptide: FPYDGIPI
notes: as for B4
As to B5, the IC50 in test [3] was found to be 379 nM; in [4], 10 nM; in [7], 177 nM; in [5] it was 56 nM; in test [6] it was 344 nM.

B6: HER2/neu peptide, position 672, 10 amino acids (peptide)
peptide: GILIKRRQQK
Consider B6, for which the “relative binding ratio (IC50 of standard peptide / IC50 of test peptide)” value in test [2] is 0.015.

B7: HER2/neu peptide, position 508, 10 amino acids (peptide)
peptide: GLACHQLCAR
As to B7, the “relative binding ratio (IC50 of standard peptide / IC50 of test peptide)” value in test [2] is 0.011.

B8: HER2/neu peptide, position 478, 10 amino acids (peptide)
peptide: HTVPWDQLFR
notes: also called Her2/neu.478
Take B8: the relative binding ratio in test [1] is 0.072 ratio (IC50 of standard peptide / IC50 of test peptide).

B9: HER2/neu peptide, position 292, 10 amino acids (peptide)
peptide: GASCVTACPY
In the case of B9, the “relative binding ratio (IC50 of standard peptide / IC50 of test peptide)” value in test [2] amounted to 0.0003.

B10: HER2/neu peptide, position 727, 10 amino acids (peptide)
peptide: GSGAFGTVYK
On to B10, for which the “relative binding ratio (IC50 of standard peptide / IC50 of test peptide)” value in test [2] is 0.066.

B11: HER2/neu peptide, position 878, 10 amino acids (peptide)
peptide: HADGGKVPIK
On to B11, for which the “relative binding ratio (IC50 of standard peptide / IC50 of test peptide)” value in test [2] was found to be 0.0003.

B12: Her2/neu.801.I11 (peptide)
peptide: MPYGCLLDHVI
notes: 11-mer analog of the HER2/neu peptide starting at position 801
B12: the IC50 in test [3] was found to be 4.2 nM; in [4], 2.4 nM; in [7] it was 66 nM; in test [5], 7.7 nM; in test [6], 1.9 nM.

B13: HER2/neu peptide, position 632, 9 amino acids (peptide)
peptide: HSCVDLDDK
On to B13, for which the relative binding ratio in test [1] was 0.0007 ratio (IC50 of standard peptide / IC50 of test peptide).

B14: HER2/neu peptide, position 727, 9 amino acids (peptide)
peptide: GSGAFGTVY
Turning to B14, the “relative binding ratio (IC50 of standard peptide / IC50 of test peptide)” value in test [2] is 0.0028.

B15: Her2/neu.649.F1, 10-mer (peptide)
peptide: FPLTSIISAV
notes: 10-mer analog of the HER2/neu peptide starting at position 649; same label as the 9-mer in r40
As for B15, the IC50 in [3] is 300 nM; in test [4], 63 nM; in [7], 220 nM; in [5], 1.2 nM; in test [6], 2910 nM.

B16: Her2/neu.649.F1I10 (peptide)
peptide: FPLTSIISAI
notes: 10-mer analog of the HER2/neu peptide starting at position 649
For the molecule B16, the concentration for half-maximal inhibition (IC50) in [3] stood at 327 nM; in test [4] it was 26 nM; in test [7], 229 nM; in [5], 3.3 nM; in [6] it was 194 nM.

B17: HER2/neu peptide, position 1213, 9 amino acids (peptide)
peptide: FSPAFDNLY
Turning to B17, in test [2], the “relative binding ratio (IC50 of standard peptide / IC50 of test peptide)” value amounted to 0.0002.

B18: HER2/neu peptide, position 668, 9 amino acids (peptide)
peptide: GVVFGILIK
B18: the “relative binding ratio (IC50 of standard peptide / IC50 of test peptide)” value in [2] is 0.0047.

B19: Her2/neu.706.I11 (peptide)
peptide: MPNQAQMRILI
notes: 11-mer analog of the HER2/neu peptide starting at position 706
Take B19: the half-maximal inhibitory concentration (IC50) turned out to be 1800 nM in [3]; 37 nM in test [4]; 344 nM in test [7]; 303 nM in [5]; 12 nM in test [6].

B20: HER2/neu peptide, position 673, 9 amino acids (peptide)
peptide: ILIKRRQQK
On to B20, for which, in test [1], the relative binding ratio was 0.0097 ratio (IC50 of standard peptide / IC50 of test peptide).

B21: HER2/neu peptide, position 776, 9 amino acids (peptide)
peptide: GVGSPYVSR
As for B21, in test [2], the “relative binding ratio (IC50 of standard peptide / IC50 of test peptide)” value was 0.001.

B22: HER2/neu peptide, position 447, 10 amino acids (peptide)
peptide: GLGISWLGLR
As to B22, in test [2], the “relative binding ratio (IC50 of standard peptide / IC50 of test peptide)” value came out at 0.0037.

B23: HER2/neu peptide, position 832, 9 amino acids (peptide)
peptide: GMSYLEDVR
For B23, the “relative binding ratio (IC50 of standard peptide / IC50 of test peptide)” value in test [2] is -0.0002.

B24: Her2/neu.642.F1 (peptide)
peptide: FPAEQRASPL
notes: 10-mer analog of the HER2/neu peptide starting at position 642
Consider B24, for which the IC50 in test [3] is 248 nM; in test [4], 859 nM; in [7], 1.4 nM; in [5], 286 nM; in test [6], 8460 nM.

B25: HER2/neu peptide, position 327, 10 amino acids (peptide)
peptide: GTQRCEKCSK
As to B25, the “relative binding ratio (IC50 of standard peptide / IC50 of test peptide)” value in [2] stood at 0.021.

B26: HER2/neu peptide, position 346, 9 amino acids (peptide)
peptide: GMEHLREVR
For B26, the “relative binding ratio (IC50 of standard peptide / IC50 of test peptide)” value in test [2] is -0.0002.

B27: Her2/neu.669 (AA 9) (peptide)
peptide: VVFGILIKR
notes: synthetic peptide; the 9-mer and the 10-mer carry the same source label Her2/neu.669
In the case of B27, the IC50 in [8] was found to be 100 nM; in test [9], 4 nM; in test [10] it was 13 nM.

B28: Her2/neu.760.F1, 9-mer (peptide)
peptide: FPKANKEIL
notes: 9-mer analog of the HER2/neu peptide starting at position 760; same label as the 8-mer in r52
Take B28: the 50% inhibitory concentration (IC50) is 4500 nM in test [3], 190 nM in test [4], 6.7 nM in test [7] and 77 nM in test [5].

B29: Her2/neu.706.F1, 10-mer (peptide)
peptide: FPNQAQMRIL
notes: 10-mer analog of the HER2/neu peptide starting at position 706; same label as the 9-mer in r49
Consider B29, for which the IC50 in test [3] turned out to be 200 nM; in test [4] it was 458 nM; in test [7] it was 81 nM; in test [5], 31 nM; in test [6], 443 nM.

B30: Her2/neu.884.F1I8 (peptide)
peptide: FPIKWMAI
notes: 8-mer analog of the HER2/neu peptide starting at position 884
As to B30, the half-maximal inhibitory concentration (IC50) in test [3] turned out to be 1140 nM; in test [4] it was 122 nM; in test [7], 22 nM; in test [5], 33 nM; in [6] it was 930 nM.

B31: Her2/neu.884.F1 (peptide)
peptide: FPIKWMAL
notes: 8-mer analog of the HER2/neu peptide starting at position 884; also called FPIKWMAL
For B31, the half-inhibitory concentration (IC50) in test [3] amounted to 248 nM; in test [4], 306 nM; in [7], 0.6 nM; in test [5], 40 nM; in [6], 547 nM.

B32: Her2/neu.706.F1, 9-mer (peptide)
peptide: FPNQAQMRI
notes: 9-mer analog of the HER2/neu peptide starting at position 706; same label as the 10-mer in r51
On to B32, for which the concentration for half-maximal inhibition (IC50) in test [3] is 108 nM; in test [7], 68 nM; in [5], 4.5 nM; in test [6] it was 18 nM.

B33: HER2/neu peptide, position 704, 10 amino acids (peptide)
peptide: GAMPNQAQMR
Regarding B33, the “relative binding ratio (IC50 of standard peptide / IC50 of test peptide)” value in [2] was -0.0002.

B34: Her2/neu.698.F1 (peptide)
peptide: FPLTPSGAM
notes: 9-mer analog of the HER2/neu peptide starting at position 698
For the molecule B34, the IC50 in [3] amounted to 16 nM; in [4] it was 71 nM; in test [7] it was 2 nM; in test [5], 91 nM; in [6], 1520 nM.

B35: Her2/neu.779.F1, 8-mer (peptide)
peptide: FPYVSRLL
notes: 8-mer analog of the HER2/neu peptide starting at position 779; same label as the 10-mer in r56
Regarding B35, the IC50 in [3] came out at 600 nM; in [4] it was 6.9 nM; in test [7] it was 61 nM; in test [5], 172 nM; in [6], 581 nM.

B36: HER2/neu peptide, position 549, 10 amino acids (peptide)
peptide: GLPREYVNAR
Turning to B36, the “relative binding ratio (IC50 of standard peptide / IC50 of test peptide)” value in [2] amounted to 0.0002.

B37: HER2/neu peptide, position 976, 10 amino acids (peptide)
peptide: FSRMARDPQR
As for B37, the “relative binding ratio (IC50 of standard peptide / IC50 of test peptide)” value in test [2] was -0.0002.

B38: Her2/neu.701.F1 (peptide)
peptide: FPSGAMPNQI
notes: the label names only F1 though the C-terminus is I
As for B38, the IC50 in test [3] was 6550 nM; in test [4], 131 nM; in [7], 229 nM; in test [5], 100 nM; in [6], 775 nM.

B39: Her2/neu.779.F1, 10-mer (peptide)
peptide: FPYVSRLLGI
notes: 10-mer analog of the HER2/neu peptide starting at position 779; same label as the 8-mer in r55
Consider B39, for which the concentration for half-maximal inhibition (IC50) in test [3] stood at 3600 nM; in test [4] it was 7.9 nM; in [7], 112 nM; in test [5], 9.1 nM; in [6], 358 nM.

B40: HER2/neu peptide, position 1038, 9 amino acids (peptide)
peptide: GAGGMVHHR
With B40, the “relative binding ratio (IC50 of standard peptide / IC50 of test peptide)” value in test [2] turned out to be 0.0002.

B41: Her2/neu.649.F1I9 (peptide)
peptide: FPLTSIISI
notes: 9-mer analog of the HER2/neu peptide starting at position 649
B41: the IC50 in [3] amounted to 118 nM; in [7], 212 nM; in [5], 1.5 nM; in [6] it was 28 nM.

B42: Her2/neu.649.F1, 9-mer (peptide)
peptide: FPLTSIISA
notes: 9-mer analog of the HER2/neu peptide starting at position 649; same label as the 10-mer in r43
For the molecule B42, the IC50 in test [3] was found to be 21 nM; in [4], 663 nM; in [7], 290 nM; in test [5] it was 1.4 nM; in test [6], 3000 nM.

For orientation: IC50 means the concentration that gives 50% inhibition.
